From the supplement of paper PMC9170038

System: MS2 coat protein
Assay: apparent KD of MS2 coat protein; higher = weaker reporter binding
Conditions: Eterna round: R107
Outline: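 Designed RNA switches were made by on-chip transcription from Illumina sequencing clusters and then titrated with SNAP-549-labelled MS2 coat protein. Twofold steps ran from 0.7 or 1.5 nM to 3 µM, each lasting 0.8–1.5 h early and 10–20 min late, in 100 mM Tris-HCl pH 7.5, 80 mM KCl, 4 mM MgCl2, without or with constant ligand. Apparent KD is the per-design median of normalised cluster binding-curve fits.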

[1] = input ligand: theophylline 20 uM
[2] = input ligand: theophylline 2 mM
[3] = input ligand: tryptophan 2.4 mM

Sequence	apparent KD of MS2 coat protein (input ligand: arginine 13.2 mM)	apparent KD of MS2 coat protein (input ligand: none)	apparent KD of MS2 coat protein [1]	apparent KD of MS2 coat protein [2]	apparent KD of MS2 coat protein [3]
UUAUUUAACGGAAGGAGCGCGGAUAAUAAAGUGGGUAAACAUGAGGAUCACCCAUGUAAACCGCAGGUAGGUCGCCGAUAUUUAU [AstrosEXyARgB#6]	43.9 nM	56.5 nM	77.6 nM	72.9 nM	42.6 nM
GAACAUGAGGAUCACCCAUGUUAAACAGAUACCAGUGAUAUAAUACACCCUUGGCAGCUGAAGCUGAAUAAUAAUUCCCUCAAGC [#21 SameState-TheophyllineA]	13.4 nM		17 nM		10.5 nM
AGCCGAAACCUUGAUACCAGAUCAUGCUGCACAUGAGGAUCACCCAUGUCGUUAAACAUGGUCCCUUGGCAGCAAGUUAGGAUCU [Usustiusso]	114 nM		161 nM		103 nM
UAUCCACAUGAGGAUCACCCAUGUAUGGAAGGAGCGGUGAAUGAACCAGGUAGGUCGCCAUGGUGAGGAUCAUCUAUGGAUUCGU [Exclusion - Arginine A (Freestyle 9)]	30.3 nM	56.5 nM	82.4 nM	72.2 nM	86.7 nM
GGGCAAGAGGGAAGGAGCGUCGGCUGAGUAACAUGAGGAUCACCCAUGUAGCACAUGGUGUGGCAGGUAGGUCGCCCUCUGCCCU [SS-ArgB8]	56.1 nM	103 nM	201 nM	178 nM	118 nM
CAAAAUUUAACGGCCGCCACUUACUCAUGAGGUAACAACAUGAGGAUCACCCAUGUUUGAGGAUCAAGGACCGGGUUAAAUUUUG [AstrosSSTry#20]	26.6 nM		33.9 nM	30.7 nM	
CCUGGAUCAGAUCUUAAAGGCGGUUCUGAUACCAGUCUUUUCCGAGACCCUUGGCAGCAGAACACAUGAGGAUCACCCAUGUAAA [theeternabot_exclusion_MS2_Theo_A_11]	29.1 nM		59 nM		59.7 nM
AGCGACAUGCGUGAUACCAGCUACAUGAGGAUCACCCAUGUAAGUAGGAAACUACUGUGUAGCCCUUGGCAGCAUAGUGCAUGUC [Exclusion - Theophylline B (Freestyle 22)]	13.4 nM		23.5 nM		15 nM
GUCACCAGGAGAAGGAGCGUGAAGACAUGAGGAUCACCCAUGUAGAGGCGCCGACGGCGUUCGCAGGUAGGUCGCUCCUGGUGAC [#1 Same State - Arginine B Attempt #17 (HarryS)]	22 nM	20.5 nM	35.2 nM	26.6 nM	20.4 nM
ACUUGAUACUGAAGGAGCGUCGGAUAAACUCGCACAUGAGGAUCACCCAUGUAUAUGAAUCGACAGGUAGGUCGCAGUAUCGAGU [Arg B SS t6]	13 nM	13.6 nM	19.7 nM	15.6 nM	15.3 nM
AGCCCUGUGCUAGAUACCAGCUACAUGAGGAUCACCCAUGUGCGUCAGGACUGACUGUGUAGCCCUUGGCAGCUACUCGCAUGUA [Exclusion - Theophylline B (Freestyle 5)]	14.4 nM		20 nM		14.5 nM
AUUCAUGGAAACAUGACAUAGGGAUCUAUCCGAGGACCGGUACGGCCGCCACUCGCGUGGAGGCACAUGAGGAUCACCCAUGUUA [SS Tryp A #5]	71.2 nM		384 nM	843 nM	
UAACAUGAGGAUCACCCAUGUUUGAAGGAACGAGGACCGGUACGGCCGCCACUCGACGAGUGGAUGAGAAGUGGGAUAGUGUGCU [Same State Trp A GF7]	15.3 nM		18.2 nM	14.3 nM	
ACAUGAGGAUCACCCAUGUCACGGCACGAUACCAGCUGAUCCGGUGGCCCUUGGCAGCGUGACGUUUGGUCCCGCGGAUGACACG [ppmullin]	96.5 nM		142 nM		137 nM
CUAAGAGUUACGGCCGCCACUAGUUGGGAUCCGCCCGUAAAAUCACAUGAGGAUCACCCAUGUCCUAGGACCGGGUAAUCGCAUU [theeternabot_sameState_MS2_Trp_B_31]	110 nM		616 nM	499 nM	
ACAUGAGGAUCACCCAUGUAAUGGCACGAUACCAGCUGAUCCCGUGGCCCUUGGCAGCGUCCGGUGUGGUCCGCCGGGUUGGACG [XXXMULLIN]	24.4 nM		38.7 nM		24.1 nM
GUGGAGACACGAGAUACCAGUCUCUAUAACAUGAGGAUCACCCAUGUAAUGCUCCUCAGGGACCCUUGGCAGCUCAGUAUGAUGA [Exclusion - Theophylline B]	34.8 nM		54.5 nM		35.7 nM
UGAUCCUACAGAGAUACCAGUGCCACUAAAUAACUAAACACAUGAGGAUCACCCAUGUAACACCCUUGGCAGCUCAACUAAAGGG [Same State Theophylline B GF16]	19.7 nM		25.5 nM		26.8 nM
GGGAGGGAGGCGGCCGCCACUGAUUUUCAUAUAUAUAUAACAUGAGGAUCACCCAUGUGGAUAUGCAGGACCGGGCCUUUUUUUU [aaaJ]	123 nM	22.2 nM	18.8 nM	13.2 nM	20.2 nM
GGCACAUAGUCGGCCGCCACUAGUGGGAAAUGGGAGAACAUGAGGAUCACCCAUGUAUAAUAGCCUAGGACCGGGACUAUGUGCC [Elk]	64.2 nM	188 nM	227 nM	113 nM	55.3 nM

Sequence	apparent KD of MS2 coat protein (input ligand: arginine 13.2 mM)	apparent KD of MS2 coat protein (input ligand: none)	apparent KD of MS2 coat protein [1]	apparent KD of MS2 coat protein [2]	apparent KD of MS2 coat protein [3]
AUAAUAAUCCUCAUGUAAGGUCCUCGAUAACGAGGACCGGUACGGCCGCCACUCGAACAUGAGGAUCACCCAUGUACGAGGACCA [M' - T' - T - MS2 - T'' Design 1]	19.6 nM		37 nM	38.2 nM	
CUAUGCAGGUCGGCCGCCACUACACACAUGAGGAUCACCCAUGUAGUUACUGGGUGAAGUGGCAGUAGGACCGGGACCUGCACAC [Brourdmod18]	150 nM	436 nM	458 nM	619 nM	431 nM
UCGGGCAGAGCGGCCGCCACUGUUUGGCAUGCGGAUGAAGGAACAUGAGGAUCACCCAUGUAGAUUAGGACCGGGCUUUCGGAGA [cctchmullin]	19.3 nM	21.4 nM	32.8 nM	25.5 nM	22.2 nM
AAUUUUCACGGAAGGAGCGUCACGUAAUUCAUACAUGAGGAUCACCCAUGUUAGUGGUAGAGACAGGUAGGUCGCCGUUAUUUGA [JR_AAArginiB_Sub026]	14.3 nM	16.8 nM	35.3 nM	20.3 nM	21.4 nM
GGACUAACCAGAAGGAGCGGCGCGCAGAAACUGCAAUUUCCUCCACACGAGGAUCACCCGUGUCAGGUAGGUCGCUGGUUAGUCG [ArgBX 29]	13.1 nM	11.4 nM	15.1 nM	12.9 nM	12.3 nM
UGCCUAGACGUGGAUUACCCGUGUACCGAAGGAGCGCCCGAAAGGGCAGGUAGGUCGCGGAGGACAUGAGGAUCACCCAUGUUUA	31.9 nM	201 nM	151 nM	431 nM	175 nM
GGUUGGUGUAUAUAUAUAUUGAUUACUGAAGGAGCGGGAAAUAACCCAGGUAGGUCGCAGAGAUCCACAUGAGGAUCACCCAUGU [!0.J]	31 nM	53.7 nM	50.2 nM	51 nM	38.9 nM
AAAUAGGUAGGAGAUACCAGAUAGGUUAACAUGAGGAUCACCCAUGUGUAUGCACUUAGUGUCCCUUGGCAGCUCCUGGAUCUGG [#19 Same State - Theophylline B]	33.3 nM	47.1 nM	77.9 nM	63.2 nM	60.5 nM
UCCUGCAGAGCGGCCGCCACUGUAUUGCGUGAGGAUGACCCAACAUGAGGAUCACCCAUGUUGUUUAGGACCGGGCUUGCCACCA [lkpmullin]	16.7 nM	14.2 nM	18.5 nM	18.1 nM	18.2 nM
AGCAUUGUAACAGAUACCAGACUUUUAAUGCCUCUAAUUACAUGAGGAUCACCCAUGUUUGUCCCUUGGCAGCUGUUAUGAUGCA [JR_ExcTheophyB_Sub009]	84.1 nM		174 nM		125 nM
UGGUGUAGGGUAAAUAGGCUGAGUACAGAAGGAGCGCGAAUAAACGCAGGUAGGUCGCUGGACUCCACAUGAGGAUCACCCAUGU [Same State Arginine A GF 28]	35.5 nM	28.4 nM	34.1 nM	23.3 nM	36.4 nM
UUCAGCUAGUCGGCCGCCACUGCAUGAGGAUCACCCAUGUAGGUCCACACUGCUUCGGCAGUGAGUAGGACCGGGACUAGCUGAG	11.4 nM	9.41 nM	12.9 nM	10.8 nM	13.7 nM
AACAUGAGGAUCACCCAUGUACAUUUCGAUCGAGGACCGGUACGGCCGCCACUCGAAAACAUGAGGAUCACCCAUGUUCAACAGG [Tryp A SS t4]	65 nM		336 nM	390 nM	
ACGUCCGGAUUAAUCGUGGGCAUGGUCGAUACCAGUAUUUUAAUCUACCCUUGGCAGCGACAUGAGGAUCACCCAUGUGCGAUGA [XTheo A #18]	14.3 nM		23 nM		16.9 nM
CGGCCCUCACAUGAGGAUCACCCAUGUGAUACCAGCCUGGAAACAGGCCCUUGGCAGCACAGGUCAUCAAAAGAUGACCAAGCCG [TheoAX 21 #SwitchBubble]	15.1 nM		20.5 nM		11.8 nM
AAAUAAAACUGACAUACUGACCCAGUGGAAGGAGCGCACGAGGGUGCAGGUAGGUCGCCACAUGAGGAUCACCCAUGUCACGGAA [Esesinonla]	56 nM	91.9 nM	135 nM	131 nM	86.7 nM
GGGUACAUCGCGGCCGCCACUUAUGUAAAUACAUGAGGAUCACCCAUGUCGAUGGAGACAUCGGUAAGGACCGGGUGAUGUACCG	168 nM	155 nM	174 nM	183 nM	
UUUUUCGCGGGUGAUACCAGCAAAGCUGUACUGGUCUGGUACAUGAGGAUCACCCAUGUUUGCCCUUGGCAGCGCUCGGGAGAAG [#21 Exclusion-TheophyllineB]	27.7 nM		47.9 nM		28.6 nM
AACACAUGAGGAUCACCCAUGUUCUCGUGUCGAGGACCGGUACGGCCGCCACUCGGUUCUCGCGAGGAUGGUCAAAGACUAUCCA [Omei Trp A SS B v7]	40.3 nM		57.4 nM	50.4 nM	
